Holding throughout (conditions): both partners purified
The target of experiment [1] is T1, Cbx7.V1 (tags removed, used for FP and ITC) (human, UniProt O95931 7-66, E8D (printed as the back-mutation D8E) | Q9D | V10I (printed as the …)).
T1 construct: chromodomain of human Cbx7 (Cbx7-chromo), UniProt O95931; source: E. coli BL21(DE3), purified (Ni-NTA; tags removed with TEV protease)
T1 sequence: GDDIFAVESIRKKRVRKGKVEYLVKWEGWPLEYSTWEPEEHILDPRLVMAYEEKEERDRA
Briefly: ITC; peptides (1.2-2 mM, syringe) titrated into Cbx7.V1 (70-112 µM, cell); 25 °C; PBS pH 7.4, 1 mM TCEP; one-site binding model. For orientation: ITC needs no label: the signal is the heat of the interaction.

Experiment [2] deals with T2, Cbx7.V1 (His6- and Flag-tagged construct, used for BLI) (human, UniProt O95931 7-66, E8D (printed as the back-mutation D8E) | Q9D | V10I (printed as the …)).
T2 construct: chromodomain of human Cbx7 (Cbx7-chromo), UniProt O95931; removal of the tags is told only for FP and ITC; source: E. coli BL21(DE3), purified (Ni-NTA)
T2 sequence: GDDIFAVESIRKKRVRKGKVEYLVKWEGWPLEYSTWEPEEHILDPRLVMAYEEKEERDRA
Briefly: BLI; biotinylated peptides immobilised on streptavidin biosensor tips (Octet HTX); chromodomains in solution at 5 or 1 µM; 25 °C; 25 mM HEPES pH 7.0, 150 mM NaCl, 1 mg/ml BSA, 0.01% Tween-20; steady-state fit, Langmuir model. Background: In BLI a coated tip is dipped into the sample, and binding shifts an interference pattern.

The target of experiment [3] is T3, Cbx7.V1 D8E back-mutant (human, UniProt O95931 7-66, Q9D | V10I (printed as the back-mutation I10V) | K33E | P37L (printed as the …)).
T3 construct: chromodomain of human Cbx7, UniProt O95931; Cbx7.V1 with residue 8 back to the wild type; source: E. coli BL21(DE3), purified (Ni-NTA)
T3 sequence: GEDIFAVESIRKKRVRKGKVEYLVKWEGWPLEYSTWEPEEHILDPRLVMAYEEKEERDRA
Described as above.

Experiment [4] addresses T4, Cbx7.V1 D9Q back-mutant (human, UniProt O95931 7-66, E8D (printed as the back-mutation D8E) | V10I (printed as the back-mutation …)).
T4 construct: chromodomain of human Cbx7, UniProt O95931; Cbx7.V1 with residue 9 back to the wild type; source: E. coli BL21(DE3), purified (Ni-NTA)
T4 sequence: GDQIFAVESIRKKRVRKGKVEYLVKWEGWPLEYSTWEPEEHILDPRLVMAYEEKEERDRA
The description is as above.

Experiment [5] deals with T5, Cbx7.V1 I10V back-mutant (human, UniProt O95931 7-66, E8D (printed as the back-mutation D8E) | Q9D | K33E | P37L (printed as the …)).
T5 construct: chromodomain of human Cbx7, UniProt O95931; Cbx7.V1 with residue 10 back to the wild type; source: E. coli BL21(DE3), purified (Ni-NTA)
T5 sequence: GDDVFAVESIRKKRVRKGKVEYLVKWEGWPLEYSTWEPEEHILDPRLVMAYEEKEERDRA
Described as above.

The target of experiment [6] is T6, Cbx7.V1 E33K back-mutant (human, UniProt O95931 7-66, E8D (printed as the back-mutation D8E) | Q9D | V10I (printed as the …)).
T6 construct: chromodomain of human Cbx7, UniProt O95931; Cbx7.V1 with residue 33 back to the wild type; source: E. coli BL21(DE3), purified (Ni-NTA)
T6 sequence: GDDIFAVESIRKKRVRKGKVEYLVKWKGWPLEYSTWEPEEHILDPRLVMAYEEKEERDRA
Described as above.

The target of experiment [7] is T7, Cbx7.V1 L37P back-mutant (human, UniProt O95931 7-66, E8D (printed as the back-mutation D8E) | Q9D | V10I (printed as the …)).
T7 construct: chromodomain of human Cbx7, UniProt O95931; Cbx7.V1 with residue 37 back to the wild type; source: E. coli BL21(DE3), purified (Ni-NTA)
T7 sequence: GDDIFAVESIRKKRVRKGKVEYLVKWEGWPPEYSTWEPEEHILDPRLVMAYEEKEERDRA
Described as above.

In experiment [8] the target is T8, Cbx7.V1 E38K back-mutant (human, UniProt O95931 7-66, E8D (printed as the back-mutation D8E) | Q9D | V10I (printed as the …)).
T8 construct: chromodomain of human Cbx7, UniProt O95931; Cbx7.V1 with residue 38 back to the wild type; source: E. coli BL21(DE3), purified (Ni-NTA)
T8 sequence: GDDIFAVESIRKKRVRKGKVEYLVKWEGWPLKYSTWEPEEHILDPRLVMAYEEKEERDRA
The description is as above.

The target of experiment [9] is T9, Cbx7.V1 (human, UniProt O95931 7-66, E8D (back-mutant printed as D8E) | Q9D (back-mutant printed as D9Q) | V10I …).
T9 construct: also called Cbx7.5; source: E. coli BL21(DE3), purified (Ni-NTA); tags removed with TEV protease
T9 sequence: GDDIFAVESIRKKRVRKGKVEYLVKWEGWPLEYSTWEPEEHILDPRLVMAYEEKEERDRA
Briefly: fluorescence polarisation; 0.5 nM FITC-labeled peptide, chromodomain serially diluted (wild type 200-0.2 µM; Cbx7.V1 50 µM-50 nM); 25 mM HEPES pH 7.5, 150 mM NaCl, 1 mM DTT, 0.01% TritonX-100; 30 min at 25 °C; one-site total binding model. (In general: Polarisation of emitted light reports the rotation of a fluorescent probe.)

In experiment [10] the target is T10, Cbx7 Q9D (human, UniProt O95931 7-66, Q9D).
T10 construct: chromodomain of human Cbx7 (UniProt O95931) with Q9D; source: E. coli BL21(DE3), purified (Ni-NTA); tags removed with TEV protease
T10 sequence: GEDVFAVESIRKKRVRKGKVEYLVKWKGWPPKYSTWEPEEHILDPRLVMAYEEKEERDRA
The description is as above.

For experiment [11], the target named is T11, Cbx7 K33E (human, UniProt O95931 7-66, K33E).
T11 construct: chromodomain of human Cbx7 (UniProt O95931) with K33E; source: E. coli BL21(DE3), purified (Ni-NTA); tags removed with TEV protease
T11 sequence: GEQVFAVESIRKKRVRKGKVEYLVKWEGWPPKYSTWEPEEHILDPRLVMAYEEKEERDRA
The experiment is described as above.

B1: H3K27me3 peptide, N-terminal biotin (peptide)
chain: KQLATKAARKSAPATGGVK
modifications: trimethyl-lysine at K27; biotin followed by an aminohexanoic acid linker at the N-terminus
As a reminder, the Kd is the equilibrium constant for the complex coming apart. Lower therefore signals tighter binding. By stoichiometry N is commonly meant the number of molecules, sites or subunits per partner or assembly. As for B1, the Kd was 7.8 µM in experiment [1]; 2 µM in experiment [2]; 2 µM in [3]; 2 µM in [4]; 2 µM in experiment [5]; above 20 µM in experiment [6]. The Kd in experiment [7] stood at 2.5 µM; in experiment [8], 1.5 µM. In experiment [1], the “stoichiometry N” value was around 1.

B2: H3K9me3 peptide, N-terminal biotin (peptide)
chain: ARTKQTARKSTGGKAPR
modifications: trimethyl-lysine at K9; biotin followed by an aminohexanoic acid linker at the N-terminus
Regarding B2, the Kd in experiment [1] was 7 µM; in experiment [2], 4.5 µM; in experiment [3] it was 5 µM; in experiment [4], above 20 µM; in [5], 3.5 µM; in experiment [6] it was 10 µM. For the same molecule, the values for the Kd in [7] and in experiment [8] were 3 µM and 2 µM, respectively. Further, the “stoichiometry N” value in experiment [1] was around 1.

B3: FITC-labeled H3K9me3 peptide (peptide)
peptide: ARTKQTARKSTGGKAPR
modifications: trimethyl-lysine at K9 (Kme3); fluorescein isothiocyanate (FITC) on the N-terminus
notes: histone H3 N-terminal tail, residues 1-17; source: synthetic peptide (GenScript)
As to B3, the Kd in [9] came out at 7.2 µM; in [10], 12.3 µM; in experiment [11], 18 µM.

B4: FITC-labeled H3K27me3 peptide (peptide)
peptide: KQLATKAARKSAPATGGVK
modifications: trimethyl-lysine at K27 (Kme3); fluorescein isothiocyanate (FITC) on the N-terminus
notes: histone H3 tail, residues 18-36; source: synthetic peptide (GenScript)
Take B4: the Kd in [9] was 4.2 µM; in experiment [10], 97 µM; in experiment [11], 17.5 µM.

The values above are taken from paper PMC9666628 (Nature Communications, 2022).
